First the molecules themselves.
B1: [Ala^1,Thr^2,Glu^33,Glu^53] desulfatohirudin (protein)
chain: ATYTDCTESGQNLCLCEGSNVCGQGNKCILGSDGEKNQCVTGEGTPKPQSHNEGDFEEIPEEYLQ
B2: [Ala^1,Thr^2,Glu^33,Gln^52,Glu^53,Ala^54]-desulfatohirudin (protein)
chain: ATYTDCTESGQNLCLCEGSNVCGQGNKCILGSEGEKNQCVTGEGTPKPQSHQEADFEEIPEEYLQ
B3: [Ala^1,Thr^2,Gln^52,Glu^53,Glu^55] desulfatohirudin (protein)
chain: ATYTDCTESGQNLCLCEGSNVCGQGNKCILGSDGEKNQCVTGEGTPKPQSHQEGEFEEIPEEYLQ
B4: [Ala^1,Thr^2,Glu^53] desulfatohirudin (protein)
chain: ATYTDCTESGQNLCLCEGSNVCGQGNKCILGSDGEKNQCVTGEGTPKPQSHNEGDFEEIPEEYLQ
B5: [Ala^1,Thr^2,Glu^33,Ala^54] desulfatohirudin (protein)
chain: ATYTDCTESGQNLCLCEGSNVCGQGNKCILGSEGEKNQCVTGEGTPKPQSHNDADFEEIPEEYLQ
B6: [Ala^1,Thr^2,Glu^33,Gln^52,Glu^53,Glu^55]-desulfatohirudin (protein)
chain: ATYTDCTESGQNLCLCEGSNVCGQGNKCILGSEGEKNQCVTGEGTPKPQSHQEGEFEEIPEEYLQ
B7: [Ala^1,Thr^2,Glu^33] desulfatohirudin (protein)
chain: ATYTDCTESGQNLCLCEGSNVCGQGNKCILGSEGEKNQCVTGEGTPKPQSHNDGDFEEIPEEYLQ
B8: [Ala^1,Thr^2,Gln^52,Glu^53,Ala^54] desulfatohirudin (protein)
chain: ATYTDCTESGQNLCLCEGSNVCGQGNKCILGSDGEKNQCVTGEGTPKPQSHQEADFEEIPEEYLQ
B9: [Ala^1,Thr^2,Ala^54] desulfatohirudin (protein)
chain: ATYTDCTESGQNLCLCEGSNVCGQGNKCILGSDGEKNQCVTGEGTPKPQSHNDADFEEIPEEYLQ

The experiment addresses thrombin. As to the kind of experiment: Ki(app.) from kinetics of thrombin inhibition with chromogenic substrate D-HHT-Gly-Arg-pNA (Stone and Hofsteenge), 25° C.
[Ile^1,Thr^2] desulfatohirudin came in with a Ki of 0.61 nM.

The molecule [Leu^1,Thr^2] desulfatohirudin had a Ki of 0.14 nM. The figure for [Ala^1,Thr^2] desulfatohirudin is 0.2 nM; for B1 it is 0.37 nM. For the molecule B2, the Ki turned out to be 0.31 nM. The figure for B3 is 0.19 nM; for B4 it is 0.38 nM. The figure for B5 is 0.35 nM.

Regarding B6, the Ki is 0.3 nM.

Regarding B7, the Ki is 0.16 nM. With B8 the figure was 0.22 nM; with B9, 0.27 nM.
